Laboratory results from the Immune Epitope Database (IEDB).

What was measured:
HLA-A*03:01 [1] = experiment: IEDB peptide-MHC binding, purified MHC/competitive/radioactivity; filed as Kd, often an IC50 or EC50 that approximates it; ≥ and ≤ were set here for values at or beyond the usual limits of such assays; conditions: source organism: Homo sapiens
HLA-B*07:02 [2] = experiment: as above; conditions: source organism: Homo sapiens
HLA-A*01:01 = experiment: as above
HLA-A*03:01 [3] = experiment: IEDB peptide-MHC binding, purified MHC/competitive/radioactivity; ≥ and ≤ were set here for values at or beyond the usual limits of such assays; conditions: source organism: Homo sapiens
HLA-B*07:02 [4] = experiment: as above; conditions: source organism: Homo sapiens
HLA-A*02:01 = experiment: as above; conditions: source organism: Homo sapiens

Row | Sequence | Kd (HLA-A*03:01 [1]) | Kd (HLA-B*07:02 [2]) | Kd (HLA-A*01:01; source organism: Homo sapiens) | IC50 (HLA-A*03:01 [3]) | IC50 (HLA-B*07:02 [4]) | IC50 (HLA-A*02:01) | Kd (HLA-A*01:01; source organism: Hepatitis B virus subtype adyw)
1 | EADPTGHSY | ≥ 5 µM | ≥ 5 µM | – | – | – | – | –
2 | FLPSDFFPSV | – | – | – | – | – | – | ≥ 5 µM
3 | RVMAPRALL | – | – | ≥ 5 µM | 905 nM | 4.6 nM | – | –

Continued, in another order:

Row | Kd (HLA-A*03:01 [1]) | Kd (HLA-B*07:02 [2]) | Kd (HLA-A*01:01; source organism: Homo sapiens) | IC50 (HLA-A*03:01 [3]) | IC50 (HLA-B*07:02 [4]) | IC50 (HLA-A*02:01) | Sequence | Kd (HLA-A*01:01; source organism: Hepatitis B virus subtype adyw)
4 | ≥ 5 µM | ≥ 5 µM | 4.31 µM | – | – | – | LLDVPTAAV | –
5 | ≥ 5 µM | ≥ 5 µM | ≥ 5 µM | – | – | 24 nM | SLLPAIVEL | –
6 | ≥ 5 µM | ≥ 5 µM | ≥ 5 µM | – | – | – | YLLPAIVHI | –
